Reference: US20180346538A1 (IMMATICS BIOTECHNOLOGIES, published 2018)

Target: T1, HLA-A*02:01 (human)
T1 construct: MHC monomer captured on streptavidin plates; also called peptide-receptive MHC molecules; MHC class I
Assay: UV-ligand exchange ELISA (anti-b2m), yield grade
Procedure: Candidate peptides for T cell based therapies according to the present invention were further tested for their MHC binding capacity (affinity). The individual peptide-MHC complexes were produced by UV-ligand exchange, where a UV-sensitive peptide is cleaved upon UV-irradiation, and exchanged with the peptide of interest as analyzed. […] To determine the yield of the exchange reaction, an ELISA was performed based on the detection of the light chain (β2m) of stabilized MHC complexes.
96 well MAXISorp plates (NUNC) were coated over night with 2 ug/ml streptavidin in PBS at room temperature, washed 4× and blocked for 1h at 37° C. in 2% BSA containing blocking buffer. […] Peptide-MHC monomers of the UV-exchange reaction were diluted 100 fold in blocking buffer. Samples were incubated for 1 h at 37° C., washed four times, incubated with 2 ug/ml HRP conjugated anti-β2m for 1h at 37° C., washed again and detected with TMB solution that is stopped with NH2SO4. Absorption was measured at 450 nm.

With SLLNQDLHWSL as the binder, how does the peptide exchange yield read?
Its peptide exchange yield is 50 to 75%.

With GLLDLPFRVGV as the binder, how does the peptide exchange yield read?
Its peptide exchange yield is 50 to 75%.
